Measured values taken from PMC6049025.

Target: wild-type HCMV gB expressed in HEK293T cells (human cytomegalovirus (strain not stated)) (UniProt P06473)
Assay: far-Western, overlay or dot blot

Sequence of DC-SIGN-Fc (Q9NNX6 59-404): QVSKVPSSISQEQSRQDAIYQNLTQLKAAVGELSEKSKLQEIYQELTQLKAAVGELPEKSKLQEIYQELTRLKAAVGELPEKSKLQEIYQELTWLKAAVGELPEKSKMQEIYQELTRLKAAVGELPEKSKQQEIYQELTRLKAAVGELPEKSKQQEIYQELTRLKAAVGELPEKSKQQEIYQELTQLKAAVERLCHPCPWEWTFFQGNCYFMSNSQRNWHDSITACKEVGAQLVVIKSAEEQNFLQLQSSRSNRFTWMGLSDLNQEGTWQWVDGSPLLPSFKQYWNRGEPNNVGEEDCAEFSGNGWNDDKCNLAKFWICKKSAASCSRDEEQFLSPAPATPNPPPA
Sequence of UniProt P06473 (P06473 32-906): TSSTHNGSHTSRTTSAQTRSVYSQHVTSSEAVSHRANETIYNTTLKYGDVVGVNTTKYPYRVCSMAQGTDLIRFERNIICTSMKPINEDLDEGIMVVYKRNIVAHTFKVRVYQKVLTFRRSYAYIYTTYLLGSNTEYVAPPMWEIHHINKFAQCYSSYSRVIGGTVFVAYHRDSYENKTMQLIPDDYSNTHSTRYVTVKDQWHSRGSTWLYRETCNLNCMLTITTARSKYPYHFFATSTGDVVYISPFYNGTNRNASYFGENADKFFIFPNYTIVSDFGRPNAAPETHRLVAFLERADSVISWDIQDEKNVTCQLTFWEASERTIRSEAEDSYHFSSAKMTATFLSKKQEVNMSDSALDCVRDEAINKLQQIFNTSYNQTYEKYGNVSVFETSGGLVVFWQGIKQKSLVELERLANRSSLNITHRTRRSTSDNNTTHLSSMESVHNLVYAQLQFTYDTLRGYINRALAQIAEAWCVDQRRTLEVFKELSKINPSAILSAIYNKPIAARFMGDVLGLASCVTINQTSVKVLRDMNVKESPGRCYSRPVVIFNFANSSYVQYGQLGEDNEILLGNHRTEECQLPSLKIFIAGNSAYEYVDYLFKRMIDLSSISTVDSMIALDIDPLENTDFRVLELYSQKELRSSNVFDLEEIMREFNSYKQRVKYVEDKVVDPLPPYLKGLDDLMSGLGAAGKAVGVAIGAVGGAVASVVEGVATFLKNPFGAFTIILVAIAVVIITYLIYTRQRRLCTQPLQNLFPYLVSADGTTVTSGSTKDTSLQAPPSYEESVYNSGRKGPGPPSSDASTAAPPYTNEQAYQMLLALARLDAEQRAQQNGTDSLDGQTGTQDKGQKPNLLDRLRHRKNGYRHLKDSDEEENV

Question: With “DC-SIGN-Fc (from UniProt Q9NNX6 59-404) (Fc fusion)” as the substance, how does the DC-SIGN-Fc binding normalized on gB expression (ratio) read?
Answer: The DC-SIGN-Fc binding normalized on gB expression (ratio) was 1.15.
